Numbering of substitutions follows the chain as printed. Bridges are numbered along the chain shown (N, C = ends). Where no end group is shown, it is not given here. [ ]: non-standard residue; d: D form. Aib = CC(C)(N)C(=O)O
B1: triple agonist of SEQ ID NO: 37 (peptide)
peptide: H[Aib]QGTFTSDYSKYLDECRQKEFVQWLLNGGPSSGAPPPSG
modifications: bridge 16-20
B2: triple agonist of SEQ ID NO: 41 (peptide)
peptide: H[Aib]QGTFTSDKSKYLDECAAQDFVQWLLDGGPSSGAPPPS
B3: triple agonist of SEQ ID NO: 50 (peptide)
peptide: H[Aib]QGTFTSDYSKYLDEKRAKEFVQWLLDHHPSSGQPPPSC
modifications: bridge 16-20
B4: triple agonist of SEQ ID NO: 39 (peptide)
peptide: H[Aib]QGTFTSDYSKYLDGQHAQCFVAWLLAGGGPSSGAPPPS
B5: triple agonist of SEQ ID NO: 36 (peptide)
peptide: H[Aib]QGTFTSDYSKYLCEKRQKEFVQWLLNGGPSSGAPPPSG
modifications: bridge 16-20
B6: triple agonist of SEQ ID NO: 4 (peptide)
peptide: H[Aib]QGTFTSDVSSYLLGQQQKEFIAWLVKGC
B7: triple agonist of SEQ ID NO: 51 (peptide)
peptide: H[Aib]QGTFTSDYSKYLDEKRQKEFVQWLLNTC
modifications: bridge 16-20
B8: triple agonist of SEQ ID NO: 43 (peptide)
peptide: Y[Aib]QGTFTSDYSKYLDEKRAKEFVQWLLDHHCSSGQPPPS
modifications: bridge 16-20
B9: triple agonist of SEQ ID NO: 44 (peptide)
peptide: HGQGTFTSDCSKQLDGQAAQEFVAWLLAGGPSSGAPPPS
B10: triple agonist of SEQ ID NO: 46 (peptide)
peptide: B9 peptide with Q13Y, G16E, A18H
B11: triple agonist of SEQ ID NO: 47 (peptide)
peptide: B9 peptide with Q13Y, A18R
B12: triple agonist of SEQ ID NO: 45 (peptide)
peptide: B9 peptide with Q13Y, L14M, E21D

target: T1, human GIP receptor (human, UniProt P48546 22-466); experiment: cell-based or functional assay
T1 sequence (looked up): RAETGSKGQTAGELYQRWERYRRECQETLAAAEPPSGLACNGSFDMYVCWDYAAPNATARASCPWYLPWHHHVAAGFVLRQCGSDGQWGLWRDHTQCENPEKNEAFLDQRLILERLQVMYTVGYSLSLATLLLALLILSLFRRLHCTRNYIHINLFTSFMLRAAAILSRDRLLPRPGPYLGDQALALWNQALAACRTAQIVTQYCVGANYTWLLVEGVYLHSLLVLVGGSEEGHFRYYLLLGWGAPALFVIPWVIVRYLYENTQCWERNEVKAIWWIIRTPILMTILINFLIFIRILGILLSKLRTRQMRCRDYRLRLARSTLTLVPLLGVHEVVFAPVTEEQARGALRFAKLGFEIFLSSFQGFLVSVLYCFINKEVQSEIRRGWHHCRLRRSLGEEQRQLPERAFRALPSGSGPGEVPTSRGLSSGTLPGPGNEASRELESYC

| Binder | In vitro activity relative to native peptide (%) vs. GIP |
| --- | --- |
| B1 | 2.2% |
| B2 | < 0.1% |
| B3 | 2.7% |
| B4 | < 0.1% |
| B5 | 0.2% |
| B6 | < 0.1% |
| B7 | 0.1% |
| B8 | 3.7% |
| B9 | < 0.1% |
| B10 | < 0.1% |
| B11 | < 0.1% |
| B12 | < 0.1% |

target: human GLP-1 receptor (human, UniProt P43220 24-463); experiment: cell-based or functional assay

| Binder | In vitro activity relative to native peptide (%) vs. GLP-1 |
| --- | --- |
| B1 | 236% |
| B2 | 34.3% |
| B3 | 67.4% |
| B4 | 13.9% |
| B5 | 37.4% |
| B6 | 8.5% |
| B7 | 14.4% |
| B8 | 12.6% |
| B9 | 1.3% |
| B10 | 1.4% |
| B11 | 2.4% |
| B12 | 6.6% |

target: human GCG receptor (human, UniProt P47871 26-477); experiment: cell-based or functional assay
Sequence (P47871 26-477): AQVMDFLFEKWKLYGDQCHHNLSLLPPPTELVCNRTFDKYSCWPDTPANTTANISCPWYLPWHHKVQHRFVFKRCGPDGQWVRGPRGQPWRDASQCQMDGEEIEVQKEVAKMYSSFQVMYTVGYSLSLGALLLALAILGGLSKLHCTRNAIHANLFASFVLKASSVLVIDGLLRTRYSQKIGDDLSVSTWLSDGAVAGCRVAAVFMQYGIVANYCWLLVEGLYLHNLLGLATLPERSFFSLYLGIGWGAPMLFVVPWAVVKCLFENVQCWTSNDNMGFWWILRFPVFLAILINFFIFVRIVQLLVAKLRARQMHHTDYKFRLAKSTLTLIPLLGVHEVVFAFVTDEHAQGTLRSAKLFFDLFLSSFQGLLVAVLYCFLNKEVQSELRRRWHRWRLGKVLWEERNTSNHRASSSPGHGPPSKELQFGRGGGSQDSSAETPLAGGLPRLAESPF

| Binder | In vitro activity relative to native peptide (%) vs. Glucagon |
| --- | --- |
| B1 | 6.21% |
| B2 | < 0.1% |
| B3 | 50.5% |
| B4 | 0.53% |
| B5 | 0.39% |
| B6 | < 0.1% |
| B7 | 2% |
| B8 | 88.4% |
| B9 | < 0.1% |
| B10 | < 0.1% |
| B11 | < 0.1% |
| B12 | < 0.1% |
